Reference: patent US20250388683A1 (VETOQUINOL, published 2025)
Where two headings read alike, the source gives them in different places.

T1: human IL31RA protein (Acrobiosystem, Cat:ILA-H5256) (human, UniProt Q8NI17 20-519, limits assumed)
T1 construct: Bought; loaded on protein A sensor tips; also called hIL-31RA; hIL31R
T1 sequence (looked up): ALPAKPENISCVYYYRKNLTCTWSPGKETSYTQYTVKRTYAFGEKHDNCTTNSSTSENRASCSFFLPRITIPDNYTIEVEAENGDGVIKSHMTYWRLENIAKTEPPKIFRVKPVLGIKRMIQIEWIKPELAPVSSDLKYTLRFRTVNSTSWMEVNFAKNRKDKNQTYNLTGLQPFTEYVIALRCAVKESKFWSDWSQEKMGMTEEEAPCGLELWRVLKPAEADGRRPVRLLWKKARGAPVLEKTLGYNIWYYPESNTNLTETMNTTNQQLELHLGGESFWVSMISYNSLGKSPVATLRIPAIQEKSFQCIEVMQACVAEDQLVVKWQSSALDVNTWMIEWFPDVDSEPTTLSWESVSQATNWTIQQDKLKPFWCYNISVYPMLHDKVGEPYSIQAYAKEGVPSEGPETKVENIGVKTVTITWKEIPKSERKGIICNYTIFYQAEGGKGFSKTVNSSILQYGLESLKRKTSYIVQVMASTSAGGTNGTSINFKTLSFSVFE

T2: Recombinant extra cellular domain of canine IL-31 receptor A (cECD-IL-31RA), His-tagged (canine)
T2 construct: also called cIL-31RA; cIL31r
T2 chain: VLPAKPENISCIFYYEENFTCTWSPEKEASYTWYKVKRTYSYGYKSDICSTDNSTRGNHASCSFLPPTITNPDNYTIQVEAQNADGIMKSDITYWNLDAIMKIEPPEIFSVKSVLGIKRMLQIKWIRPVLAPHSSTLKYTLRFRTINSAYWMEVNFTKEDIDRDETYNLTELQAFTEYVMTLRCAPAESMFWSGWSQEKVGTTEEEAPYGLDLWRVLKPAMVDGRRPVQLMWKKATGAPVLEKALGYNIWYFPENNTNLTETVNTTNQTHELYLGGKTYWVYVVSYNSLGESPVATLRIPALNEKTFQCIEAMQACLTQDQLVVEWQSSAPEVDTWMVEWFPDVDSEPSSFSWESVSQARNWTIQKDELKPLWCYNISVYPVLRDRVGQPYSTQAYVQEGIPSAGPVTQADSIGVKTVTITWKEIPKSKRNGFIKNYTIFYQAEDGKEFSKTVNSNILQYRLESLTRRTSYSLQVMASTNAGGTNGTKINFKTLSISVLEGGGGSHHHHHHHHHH


Experiments:
[1] = target: T3, canine IL-31RA expressed on HEK-Blue STAT3 canine IL-31R reporter cells (with canine OSMR) (canine); assay: cell-based or functional assay
[2] = target: T3, canine IL-31RA expressed on HEK-Blue …; assay: cell-based or functional assay; remark: listed apart in the source
[3] = target: T3, canine IL-31RA expressed on HEK-Blue …; assay: cell-based or functional assay; remark: listed apart in the source
[4] = target: T3, canine IL-31RA expressed on HEK-Blue …; assay: cell-based or functional assay; remark: listed apart in the source
[5] = target: T3, canine IL-31RA expressed on HEK-Blue …; assay: cell-based or functional assay; remark: listed apart in the source
[6] = target: T1, human IL31RA protein (Acrobiosystem, …); assay: Octet K2 BLI, receptor loaded on protein A tips, antibody in solution
Experimental: (§1) Binding of the purified antibodies to cECD-IL-31RA was analyzed using the Octet system (BLI technology, Fortebio). Octet K2 instrument was used to measure the binding kinetics of either canine IL-31RA (cIL-31RA) or human IL31RA (hIL-31RA) to 8DE and 3F1 antibodies. cIL-31RA (see example 1) or hIL31R proteins (Acrobiosystem, Cat:ILA-H5256) were attached to the surface of the protein A (fortéBio, Part No: 18-5013) sensor tip (5 ug/ml, 200 ul, 120 sec). […] Then, the antibodies were allowed to dissociate for 600 seconds. All the dilutions were made in PBS-Tween (0.05%) solution. The measurement was corrected for baseline drift by subtracting a control sensor exposed to running buffer (PBS-Tween, 0.05%) only. Data analysis and curve fitting were carried out using the own software (local fitting, 1:1 Langmuir model) of the device.

[7] = target: T2, Recombinant extra cellular domain of …; assay: Octet K2 BLI, cIL-31RA loaded on protein A tips, antibody at 15.6, 3.91, 0.98 nM, 1:1 Langmuir local fit
Experimental: as §1

[8] = target: T3, canine IL-31RA expressed on HEK-Blue …; assay: cell-based or functional assay; remark: listed apart in the source
[9] = target: T3, canine IL-31RA expressed on HEK-Blue …; assay: cell-based or functional assay; remark: listed apart in the source
[10] = target: T3, canine IL-31RA expressed on HEK-Blue …; assay: cell-based or functional assay; remark: listed apart in the source
[11] = target: T3, canine IL-31RA expressed on HEK-Blue …; assay: cell-based or functional assay; remark: listed apart in the source
[12] = target: T3, canine IL-31RA expressed on HEK-Blue …; assay: cell-based or functional assay; remark: listed apart in the source
[13] = target: T3, canine IL-31RA expressed on HEK-Blue …; assay: cell-based or functional assay; remark: listed apart in the source
[14] = target: T3, canine IL-31RA expressed on HEK-Blue …; assay: cell-based or functional assay; remark: listed apart in the source
[15] = target: T3, canine IL-31RA expressed on HEK-Blue …; assay: cell-based or functional assay; remark: listed apart in the source

Row | Binder | IC50 ratio (IC50 candidate/IC50 VTQ2101) [1] | IC50 (read off the curve); STAT3-SEAP reporter, canine IL-31 stimulation [2] | IC50 (read off the curve); STAT3-SEAP reporter, canine IL-31 stimulation [3] | Mean IC50 (nM) (n = 3), HEK-Blue cell-based SEAP assay [4] | IC50 (read off the curve); STAT3-SEAP reporter, canine IL-31 stimulation [8] | other results
1 | scFv-VTQ2101-LHλcap-Fc (scFv-VTQ2101-LHλcap-GS18-Canine IgG2B-LALAPG-Fc) (Fc fusion) scFv: RIVMTQSPGSLAGSVGESVSINCKSSQSVTNDLTWYQQKPGEAPKVLITYASQRYTGVPARFSGSGYGTDFTLTINNLQAEDVGDYFCQQDYASPFTFGGGTKLTVLGGSTSGGGSGGGSGGGGSSEVTLQESGPGLVKPSQTLSLTCVASGFSIKSSFIHWLRQRPGRGLEWIGRIDPAFGATEYNPAFQGRFSITADTAKNQASLQLSSMTTEDSAVYYCARYHYAASHFDAWGQGTLVTVSSPKRENGRVPRPPDCPKCPAPEAAGGPSVFIFPPKPKDTLLIARTPEVTCVVVDLDPEDPEVQISWFVDGKQMQTAKTQPREEQFNGTYRVVSVLPIGHQDWLKGKQFTCKVNNKALGSPIERTISKARGQAHQPSVYVLPPSREELSKNTVSLTCLIKDFFPPDIDVEWQSNGQQEPESKYRTTPPQLDEDGSYFLYSKLSVDKSRWQRGDTFICAVMHEALHNHYTQESLSHSPG | 1.7 ratio | ~1 nM | – | – | – | –
2 | scFab-Fc-VTQ2101 (scFab-VTQ2101-HLλcap-GS18-Canine IgG2B-LALAPG-Fc) (Fc fusion) RIVMTQSPGSLAGSVGESVSINCKSSQSVTNDLTWYQQKPGEAPKVLITYASQRYTGVPARFSGSGYGTDFTLTINNLQAEDVGDYFCQQDYASPFTFGQGTKLEIKRNDAQPAVYLFQPSPDQLHTGSASVVCLLNSFYPKDINVKWKVDGVIQDTGIQESVTEQDKDSTYSLSSTLTMSSTEYLSHELYSCEITHKSLPSTLIKSFQRSECGGSSGSGSGSTGTSSSGTGTSAGTTGTSASTSGSGSGGGGGSGGGGSAGGEVTLQESGPGLVKPSQTLSLTCVASGFSIKSSFIHWLRQRPGRGLEWIGRIDPAFGATEYNPAFQGRFSITADTAKNQASLQLSSMTTEDSAVYYCARYHYAASHFDAWGQGTLVTVSSASTTAPSVFPLAPSCGSTSGSTVALACLVSGYFPEPVTVSWNSGSLTSGVHTFPSVLQSSGLYSLSSMVTVPSSRWPSETFTCNVAHPASKTKVDKPVPKRENGRVPRPPDCPKCPAPEAAGGPSVFIFPPKPKDTLLIARTPEVTCVVVDLDPEDPEVQISWFVDGKQMQTAKTQPREEQFNGTYRVVSVLPIGHQDWLKGKQFTCKVNNKALGSPIERTISKARGQAHQPSVYVLPPSREELSKNTVSLTCLIKDFFPPDIDVEWQSNGQQEPESKYRTTPPQLDEDGSYFLYSKLSVDKSRWQRGDTFICAVMHEALHNHYTQESLSHSPG | 1.3 ratio | – | ~0.8 nM | – | – | –
3 | 8D3 chimeric canine IgGB antibody (antibody, V domains shown, also called chimeric 8D3) VH: EVQLQQSGAELVKPGASVKLSCTASGFNIKDSFIHWLKQRPEQGLEWIGRIDPANGNTEYDPNFQGKDTITADTSSNTAYLQVSSLTSEDTAVYYCARYYYGNSHFDCWGQGTTLTVSS VL: RIVMNQTPKFLPISAGDRVIITCKASQSVTNDVTWYQQKPGQSPKVLIHYASNRYTGVPDRFTGSGYGTDFTFTISTVQAEDLAVYFCQQDYSSPFTFGSGTKLEIK | – | – | – | 0.43 nM | – | IC50 (read off the curve); STAT3-SEAP reporter, canine IL-31 stimulation [5]: ~0.5 nM; binding result [6]: no binding; Kd [7]: < 0.001 nM
4 | scFv-HLλcap-Fc-VTQ2102 (scFv-VTQ2102-HLλcap-GS18-Canine IgG2B-LALAPG-Fc) (Fc fusion) scFv: EVTLQESGPGLVKPSQTLSLTCVASGFSIKSSFIHWLRQRPGRGLEWIGRIDPAFGATEYNPAFQGRFSITADTAKNQASLQLSSMTTEDSAVYYCARYHYAASHFDAWGQGTLVTVSSGSTSGGGSGGGSGGGGSSRIVMTQSPGSLAGSVGESVSINCKSSQSVTNDLTWYQQKPGEAPKVLITYASQRYTGVPARFSGSGYGTDFTLTINNLQAEDVGDYFCQQDYASPFTFGGGTKLTVLGPKRENGRVPRPPDCPKCPAPEAAGGPSVFIFPPKPKDTLLIARTPEVTCVVVDLDPEDPEVQISWFVDGKQMQTAKTQPREEQFNGTYRVVSVLPIGHQDWLKGKQFTCKVNNKALGSPIERTISKARGQAHQPSVYVLPPSREELSKNTVSLTCLIKDFFPPDIDVEWQSNGQQEPESKYRTTPPQLDEDGSYFLYSKLSVDKSRWQRGDTFICAVMHEALHNHYTQESLSHSPG | 1.5 ratio | – | – | – | ~1 nM | –
5 | 8D3-VHL/8D3-VLH caninized antibody (VTQ2101) (antibody, V domains shown) VH: EVTLQESGPGLVKPSQTLSLTCVASGFSIKSSFIHWLRQRPGRGLEWIGRIDPAFGATEYNPAFQGRFSITADTAKNQASLQLSSMTTEDSAVYYCARYHYAASHFDAWGQGTLVTVSS VL: RIVMTQSPGSLAGSVGESVSINCKSSQSVTNDLTWYQQKPGEAPKVLITYASQRYTGVPARFSGSGYGTDFTLTINNLQAEDVGDYFCQQDYASPFTFGQGTKLEIK | 1 ratio | ~0.6 nM | ~0.6 nM | 0.33 nM | ~0.6 nM | IC50 ratio (IC50 candidate/IC50 VTQ2101) [9]: 1 ratio; IC50 ratio (IC50 candidate/IC50 VTQ2101) [10]: 1 ratio; IC50 (read off the curve); STAT3-SEAP reporter, canine IL-31 stimulation [11]: ~0.3 nM; IC50 (read off the curve); STAT3-SEAP reporter, canine IL-31 stimulation [12]: ~0.05 nM; IC50 (read off the curve); STAT3-SEAP reporter, canine IL-31 stimulation [13]: ~1 nM; IC50 (read off the curve); STAT3-SEAP reporter, canine IL-31 stimulation [14]: ~1 nM; IC50 (read off the curve); STAT3-SEAP reporter, canine IL-31 stimulation [15]: ~0.6 nM
